Data taken from the supplement of paper PMC9732359.
± gives the uncertainty stated by the source.

Experiment: protein stability index of a GFP-peptide fusion (yeast GPS) (PSI 1-4); higher = more stable; sorted into four equal gates, so the index is relative within each strain
How it was run: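 The protein stability index combines read frequencies across sorting gates, each weighted by its gate number and then summed. To obtain those frequencies, a pooled yeast library of GFP fusions to tiled 17-residue yeast protein peptides, on a plasmid also expressing Cherry, was grown to mid-log phase in leucine-free medium. The cells were sorted into four equal gates by GFP/Cherry ratio before plasmid amplification by PCR and Illumina sequencing.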

Sequence	protein stability index (doa10∆)	protein stability index (pdr5∆)	protein stability index (san1∆)	protein stability index (ubr1∆)
PQQAQMQQAQFQAQQAQ [SNF2]	2.94 ± 0.062	3.04 ± 0.058	2.99 ± 0.055	3.1 ± 0.041
ARDIISHNFQNAIFQME [PCI8]	2.79 ± 0.063	2.94 ± 0.069	2.75 ± 0.046	2.92 ± 0.05
SFLEGSKALNSILESSM [RGR1]	1.81 ± 0.19	1.59 ± 0.1	3.09 ± 0.21	2.02 ± 0.13
RGVRPYKHIDASGSINR [RPS19A]	3.23 ± 0.089	3.42 ± 0.1	3.1 ± 0.062	3.23 ± 0.091
NVDVCVMEIGKDAEYLR [PUP1]	2.84 ± 0.068	2.73 ± 0.063	2.7 ± 0.066	2.39 ± 0.051
KKFLRVRIFTKIESEDD [SRB4]	1.46 ± 0.092	1.26 ± 0.089	1.16 ± 0.13	1.11 ± 0.083
KTLTGKTITLEVESSDT [RPS31]	2.62 ± 0.048	2.73 ± 0.04	2.43 ± 0.065	1.97 ± 0.034
KKSVNKLDKQINMADRS [POP6]	2.73 ± 0.062	2.94 ± 0.08	2.63 ± 0.079	2.83 ± 0.054
AKEELNGLKDQLNEERS [YIL149C/MLP2]	3.3 ± 0.14	3.42 ± 0.17	3.19 ± 0.075	3.41 ± 0.15
LWNLNAYRTDVIQALGG [PRP8]	2.17 ± 0.055	2.16 ± 0.05	1.88 ± 0.088	1.93 ± 0.041
LPNLGTPDDDEIDVENH [RPN8]	1.53 ± 0.076	1.82 ± 0.083	1.69 ± 0.11	1.42 ± 0.056
QKTVNLKNIMKVSDPYV [RPN4]	2.32 ± 0.084	2 ± 0.11	2.48 ± 0.1	1.82 ± 0.058
LEEVEGSCTGKFGYILC [RPB7]	2.14 ± 0.067	2.56 ± 0.057	2.1 ± 0.066	2.21 ± 0.046
MATNRADTLDPALLRPG [RPT3]		3.31 ± 0.18		2.79 ± 0.28
LADRDEFIQDSAARGLS [ECM29]	1.55 ± 0.092	1.31 ± 0.06	1.2 ± 0.14	2.01 ± 0.064
CKLFLADVFTDDDLFET [YCG1]	3.03 ± 0.08	3.06 ± 0.051	3.03 ± 0.048	2.59 ± 0.038
NFYIQYDPKDGLYKMME [AAR2]		2.21 ± 0.14		
VRNSFPLDEIPVDVDFN [REC8]	2.71 ± 0.12	2.33 ± 0.096	2.57 ± 0.078	2.99 ± 0.065
SNTRTMTYKNKLTVCFD [MED2]	2.51 ± 0.073	2.53 ± 0.11	1.46 ± 0.24	1.35 ± 0.056
SIGSDILTAEKMRGNGN [RRP4]	3.21 ± 0.097	3.39 ± 0.09	3.38 ± 0.05	3.32 ± 0.062
AQDSLTVTIASSLNLED [RPB8]	1.65 ± 0.048	1.92 ± 0.044	2.23 ± 0.079	1.89 ± 0.045
HSLREYINGKATALANL [RPO31]	3.06 ± 0.086	3.21 ± 0.095	2.57 ± 0.088	2.99 ± 0.068
RQCFQDNCCDFKVRTNL [MED1]	3.28 ± 0.053	3.23 ± 0.063	3.42 ± 0.04	3.21 ± 0.038
VPGPGTKLIQYEHNGRT [CSL4]	3 ± 0.092	3.06 ± 0.058	3.25 ± 0.066	3.09 ± 0.056
RRMAFKPFGSAKSDETK [YLR335W/NUP2]	2.75 ± 0.073	2.74 ± 0.063	2.88 ± 0.058	2.08 ± 0.054
AKTELNEVSLAIKKSSM [SMC2]	3.03 ± 0.06	3.12 ± 0.087	3.04 ± 0.11	2.96 ± 0.053

Sequence	protein stability index (doa10∆)	protein stability index (pdr5∆)	protein stability index (san1∆)	protein stability index (ubr1∆)
RTKNLVSKMEKAEKTLK [SMC4]	2.91 ± 0.22	3.1 ± 0.056	3.21 ± 0.065	3.09 ± 0.058
NASLTIEDEDEPFNAGI [SMC1]	3.29 ± 0.13	3.15 ± 0.12	3.39 ± 0.083	3.23 ± 0.085
RKYEISFGKIYVTKPMV [RPB2]	1.95 ± 0.092	2.44 ± 0.21	1.88 ± 0.19	2.16 ± 0.11
QNQGGAQAPFDIDDLAF [ROX3]	3.55 ± 0.13		3.4 ± 0.11	3.37 ± 0.065
VDTGLQPQHPHYVSTSK [YLR018C/POM34]	2.38 ± 0.05	2.77 ± 0.045	2.88 ± 0.05	2.9 ± 0.042
TLASLIRYNSVEIQEVP [RPC82]	2.62 ± 0.073	2.59 ± 0.051	2.48 ± 0.12	2.54 ± 0.077
KNFIESESVGAFLSFLA [YJL039C/NUP192]	2.1 ± 0.066	2.25 ± 0.068	2.47 ± 0.066	2.85 ± 0.045
DKELRKTKFQYKFLDQN [YIL149C/MLP2]	2.72 ± 0.084	2.96 ± 0.075	2.96 ± 0.064	2.98 ± 0.059
MSAVPSVQTFGKKKSAT [RPS16A]	1.45 ± 0.1	1.32 ± 0.15	1.26 ± 0.26	1.22 ± 0.13
QDGGIMGSLINGITLAL [SKI6]	3.11 ± 0.075	2.58 ± 0.058	2.53 ± 0.057	2.66 ± 0.047
CEAAVEISKKDFVRKGG [SIR3]	3.19 ± 0.11	2.9 ± 0.065	3.22 ± 0.068	3.25 ± 0.064
SPVQIAFNRFMAESLVD [SSN8]	1.52 ± 0.043	1.97 ± 0.045	1.63 ± 0.11	1.52 ± 0.044
DQLSTISMILRNISFSD [SWI1]	1.85 ± 0.052	2.44 ± 0.072	2.04 ± 0.069	2.31 ± 0.051
STTMDGANDLGFTASVS [MED1]	3.08 ± 0.092	3.1 ± 0.061	3.07 ± 0.072	2.99 ± 0.081
IVAALPISEKGLTLSTT [RPP1]	2.11 ± 0.087	2.61 ± 0.063	2.65 ± 0.057	2.48 ± 0.094
ITNKHQEGLAKFGACVA [RPN2]	1.78 ± 0.054	1.97 ± 0.038	2.54 ± 0.092	2.51 ± 0.035
ETLSIFTNVPLNLEQVT [YJL039C/NUP192]	2.33 ± 0.044	2.53 ± 0.049	2.33 ± 0.055	2.42 ± 0.044
ERVQSDENKDDELVKLL [SRP68]	3.52 ± 0.17	3.42 ± 0.12		2.96 ± 0.23
KKRLMDIDDELNELETL [SMC2]	3.05 ± 0.058	3.17 ± 0.067	3 ± 0.034	3.37 ± 0.035
GGDSDANGTFMDFGVDP [RPN10]			3.23 ± 0.13	2.96 ± 0.25
LGCTLVTLLANVRALYM [RMP1]	1.62 ± 0.17	1.85 ± 0.21	2.74 ± 0.16	2.06 ± 0.073
SAIEHTTLKSVTIASEI [RPO21]	2.54 ± 0.085	2.39 ± 0.077	2.57 ± 0.078	2.16 ± 0.045
DLSTLVHSSSPSTSSNM [GAL11]	2.77 ± 0.066	2.91 ± 0.069	2.71 ± 0.082	2.78 ± 0.039
LIPTIFRYITTWENEFL [PRP8]	2.38 ± 0.056	2.04 ± 0.047	1.75 ± 0.054	2.21 ± 0.034
YSLEAIKLGSTAIGIAT [PUP2]	1.54 ± 0.066	1.79 ± 0.08	1.43 ± 0.15	1.32 ± 0.069
LSLHTGFIENCNGSALV [MTR3]	2.65 ± 0.066	3 ± 0.06	2.79 ± 0.058	2.74 ± 0.067
